From the supplement of paper PMC10266784

B1: library; numbered along this chain (parent)
chain: MAAAAAAAAEQQSSNGPVKKSMREKAVERRSVNKEHNSNFKAGYIPIDEDRLHKTGLRGRKGNLAICVIILLFILAVINLIITLVIWAVIRIGPNGCDSMEFHESGLLRFKQVSDMGVIHPLYKSTVGGRRNENLVITGNNQPIVFQQGTTKLSVENNKTSITSDIGMQFFDPRTQNILFSTDYETHEFHLPSGVKSLNVQKASTERITSNATSDLNIKVDGRAIVRGNEGVFIMGKTIEFHMGGNMELKAENSIILNGSVMVSTTRLPSSSSGDQLGSGDWVRYKLCMCADGTLFKVQVTSQNMGCQISDNPCGNTH

Variants of: B1
Assay: SGCB cell-surface expression functional score (HA stain, bin4 vs bin1, normalised to synonymous) (log10 ratio); higher = more cell-surface SGCB (functional)
Summary of the method: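 The functional score is a log ratio of variant frequency in the highest versus the lowest intensity bin, expressed as a median over codons and duplicate transductions. Codon-saturation libraries of HA-tagged, YFP-fused human beta-sarcoglycan were transduced by lentivirus at MOI <0.1 into HEK293 cells stably expressing alpha-, gamma- and delta-sarcoglycan, and the cells were stained on ice with Alexa Fluor 647 anti-HA, fixed and sorted into four 5% intensity bins before amplicon sequencing. Synonymous variants were scaled to mean 0, SD 0.5 within each section.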

SGCB cell-surface expression functional score (log10) of substitutions, site by site:
I162: H -1.02, R -1.34, A -0.52, L -0.6, G -1.34, S -1.09, N -0.83, P -1.25, M 0.23, Y -1.43, C -1.23, W 0.05, D -1.31, F -0.81, E -0.89, T -1.07, Q -0.98, K -1.11, V -0.49
T160: I 0.64, K -2.03, A -0.29, F -0.15, C -0.14, D -1.29, N -0.8, Q -1.26, Y -1.13, P -1.28, L 0.17, M -1.02, S -0.5, H -0.01, W -0.95, R -1.29, E -1.3, V 0.03, G -1.29
N157: G 0.52, P 0.01, I -0.06, A 0.08, V 0.48, R 0.01, C 0.02, M 0.06, Q 0.38, Y 0.04, H 0.06, S -0.08, F -0.21, W 0.34, E -0.18, K -0.19, L 0.19, T -0.05, D -0.02
F170: E -2.21, T -0.01, D -1.87, I 0.36, P -1.16, Q -0.12, Y -0.86, G -0.91, R -1.14, K -0.63, C -0.28, N -1.47, S -0.47, V 0.47, A -0.27, L 0.11
S154: L -0.22, V 0.16, N -0.3, T -0.08, R 0.01, P -1.03, W -0.21, Y -0.16, Q -0.7, M 0.54
S161: H -0.26, D -0.8, I -0.06, T 0.3, L 0.12, A 0.29, Q 0.14, K -0.33, M -0.34, C -0.11, R 0.02, V -0.12, W -0.98, Y -0.18, G 0.01, E 0.42, N -0.84, P -1.15, F -0.36
I166: A -0.49, H -0.1, G -0.41, P -1.11, T 0.36, F 0.57, D -1.32, Y 0.18, C 0.54, L -0.38, N -0.78, E 0.76, M -0.16, Q -0.21, S -0.76, V 0.13, W -2.63, R -0.29, K -0.2
K159: S -0.32, E -0.7, G 0.43, P -1.13, L 0.31, A -0.02, N -0.03, C -0.02, H -0.05, Q -0.09, M -0.28, D -1.02, T -0.28, I 0, R -0.48, Y -0.79, W -0.05, V -0.09, F -0.25
F171: L 0.15, I 0.86, S -0.28, N -0.08, T 0.72, A -0.81, K 0.12, R 0.04, E -1.22, C -1.66, Q 0.8, P -0.43, Y 0.03, M 1.04, V -0.07
M168: L 0.01, Y -1.79, C -0.84, H -1.85, R -0.79, N -2.1, K -0.76, T -1.24, D -1.62, S -1.21, V -0.11, G -1.9, P -0.24, W -2.06, I -0.24, Q -1.74, E -0.66, A -1.55, F -0.59
Q169: T -0.04, N -1.92, Y -0.36, P -1.46, C -1.24, S 0.27, W -1.48, G -1.16, H -0.86, L -0.69, R 0.09, F -1.89, M -1.88, V -0.23, K 0, A -1.13, I 0.44, E 0.46, D -0.37
V155: A -0.56, Y -1.9, I 0.29, P -1.4, F -0.64, C -0.76, S -1.06, M 0.02, W -1.19, T -1.02, D -0.85, G -1.18, Q -1.48, E -0.74, H -1.51, N -1.38, L 0.18, R -1.45, K -1.53
N158: Q 0.06, Y -0.05, E -0.02, W -0.42, K -0.26, A -0.1, D 0.02, V -0.44, M -0.12, P -0.76, L -0.11, T 0.18, C 0, F -0.06, S 0.15, R -0.6, G -0.06, H -0.2, I -0.21
D172: H 0.44, I -1.04, K -0.36, P -1.12, F -0.3, L 0.77, C 0.95, G 0.2, M 0.46, N -0.02, E 0.42, A 0.03, Q -0.19
E156: P -0.84, D -0.04, K -0.6, I -0.63, L -0.43, S -0.22, H -0.39, A -0.03, R -0.38, Q 0.19, Y -0.38, M -0.14, F -0.1, V -0.3, N -0.23, C 0.01, G -0.23, W -0.4, T -0.18
S164: R -0.91, V -0.34, K -0.97, A -0.39, D 0.11, W -2.58, L -1.91, N -0.99, T -0.69, Q -0.96, C -0.79, Y -1.05, M -2.05, H -1.56, I -1.26, G -0.13, E -0.83, P -1.87, F -1.08
T163: L -0.56, V 0.25, P -1.3, S -1.01, Y 0.58, I 0.32, Q 0.21, M -1.06, R -0.05, C -0.72, H -0.2, F -0.27, K -0.3, D -1.08, E -0.38, A -0.32, G -1.5
D165: Q -1.09, P 0.58, V 0.5, N -0.35, R 0.2, S -0.01, H 0.61, Y -0.38, A 0.17, F 0.07, L -0.58, K -0.75, E 0.02, G -0.11, T 0.73, I 0.19
G167: M -1.61, E -1.93, W -1.16, V -0.99, Y -1.42, T -1.32, H -0.66, Q -0.39, I -2.1, C -2.06, A -0.48, L -0.9, D -1.19, S -1.64, P -1.01, K -0.34, N -1.11, F -1.3, R -1.14
